Broadly, the Kd is the constant that tells how readily two partners part at equilibrium.

This is an account of results in publication PMC3044117.

The assay deals with HA-tagged Patched 1 (Ptc1), expressed in 293T cells (UniProt Q61115). The experiment in a line: pull-down.
UniProt Q61115, sequence (Q61115 whole entry): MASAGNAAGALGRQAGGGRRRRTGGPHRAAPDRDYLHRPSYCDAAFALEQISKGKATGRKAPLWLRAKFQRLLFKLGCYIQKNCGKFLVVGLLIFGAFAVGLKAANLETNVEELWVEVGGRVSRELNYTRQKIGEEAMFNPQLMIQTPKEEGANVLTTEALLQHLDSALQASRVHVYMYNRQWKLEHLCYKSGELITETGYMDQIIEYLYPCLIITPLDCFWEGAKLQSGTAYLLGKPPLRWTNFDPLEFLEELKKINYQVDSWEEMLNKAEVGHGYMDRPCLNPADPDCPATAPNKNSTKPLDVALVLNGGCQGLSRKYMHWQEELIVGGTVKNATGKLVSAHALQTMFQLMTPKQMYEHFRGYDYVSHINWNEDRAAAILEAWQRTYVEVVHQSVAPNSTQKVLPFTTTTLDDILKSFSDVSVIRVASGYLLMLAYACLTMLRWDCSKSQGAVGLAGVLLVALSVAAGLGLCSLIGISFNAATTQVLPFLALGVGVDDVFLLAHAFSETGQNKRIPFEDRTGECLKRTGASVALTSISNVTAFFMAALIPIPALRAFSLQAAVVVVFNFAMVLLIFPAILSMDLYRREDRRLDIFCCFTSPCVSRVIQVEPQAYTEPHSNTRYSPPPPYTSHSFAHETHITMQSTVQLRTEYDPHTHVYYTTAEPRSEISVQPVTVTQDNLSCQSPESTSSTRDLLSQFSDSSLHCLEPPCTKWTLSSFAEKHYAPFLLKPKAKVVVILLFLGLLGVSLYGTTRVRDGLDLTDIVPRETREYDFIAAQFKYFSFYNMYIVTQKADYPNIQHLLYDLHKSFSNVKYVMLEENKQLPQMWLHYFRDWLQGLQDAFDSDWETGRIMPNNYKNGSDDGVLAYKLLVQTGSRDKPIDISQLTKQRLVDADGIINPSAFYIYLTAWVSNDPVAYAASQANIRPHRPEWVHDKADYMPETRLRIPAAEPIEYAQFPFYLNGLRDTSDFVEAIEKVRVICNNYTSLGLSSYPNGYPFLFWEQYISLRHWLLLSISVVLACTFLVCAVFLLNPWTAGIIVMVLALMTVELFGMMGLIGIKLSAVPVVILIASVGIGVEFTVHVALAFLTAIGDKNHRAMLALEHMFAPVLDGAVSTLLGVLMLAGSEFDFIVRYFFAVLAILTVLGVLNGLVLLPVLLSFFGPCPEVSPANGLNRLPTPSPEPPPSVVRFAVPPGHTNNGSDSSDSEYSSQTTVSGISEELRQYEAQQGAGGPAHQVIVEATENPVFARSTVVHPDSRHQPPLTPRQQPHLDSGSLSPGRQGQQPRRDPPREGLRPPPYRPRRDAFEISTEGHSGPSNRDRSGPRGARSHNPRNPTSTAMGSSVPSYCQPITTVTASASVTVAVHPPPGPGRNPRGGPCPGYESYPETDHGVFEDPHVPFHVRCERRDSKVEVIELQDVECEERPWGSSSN

As for “GPC5-AP fusion protein in conditioned medium”, the Kd worked out at 37 nM. This counts as double-digit nanomolar.
